Assay results published in PMC6718413, “Improving mass spectrometry analysis of protein structures with arginine-selective chemical cross-linkers” (Nature Communications, 2019).

B1: Utp8–Utp9 CTD complex (complex)
chain 1: DYPKTLTFLLTHPLFPLSRTRNLLSLLRDQPRLFKQAIVTCPNLPLNELLEELFSIRNRELLLDISFRILQDFTRDSIKQEMKKLSKLDVQNFIEFITSGGEDSSPECFNPSQSTQLFQLLSLVLDSIGLFSLEGALLENLTLYIDKQVEIAERNTELWNLIDTKGFQHGFASSTFDNGTSQKRALPTYTMEYLDI
chain 2: QPEVQHEKKETETKINKKVSKSDQVEIANILSSHLEANSTEILDDLMSGSWTEPEIKKFILTKINTVDHLSKIFLTISKSITQNPWNEENLLPLWLKWLLTLKSGELNSIKDKHTKKNCKHLKSALRSSEEILPVLLGIQGRLEMLRRQAKLREDLAQLSMQEGEDDEIEVIEHSNVISNPLQDQASPVEKLEPDSIVYANGESDEFVD
notes: Utp9 residues 361-569, as m17; This complex was formed before it was mixed with His6-Utp4
B2: Utp5–Utp15 CTD complex (complex)
chain 1: TTGTVTVILSQALQSNDHSLLETVLNNRDERVIRDTIFRLKPALAVILLERLAERIARQTHRQGPLNVWVKWCLIIHGGYLVSIPNLMSTLSSLHSTLKRRSDLLPRLLALDARLDCTINKFKTLNYEAGDIHSSEPVVEEDEDDVEYNEELDDAGLIE
chain 2: RSQRRMRAFERNINQFKWSEALDNAFVPGMAKELTLTVLQELRKRGKVRVALYGRDESTLEPLLNWCLKGIEDVRSASIVADWVAVVLELYGNTLESSPVLQELMIDLKTKVRHEIHKSKEAQRIEGMLQLLTS
notes: Utp5 residues 433-591, as m14; Utp15 residues 380-513, as m15; This complex was formed before it was mixed with His6-Utp4
B3: C-terminal domain (CTD) of Utp5 (residue 433-591) (domain or fragment, UniProt Q04177 433-591, looked up)
chain: B2 chain 1
notes: Utp5, subunit of UtpA, residues 433-591; The tags were cleaved with Ulp1; also called Utp5 CTD
B4: CTD of Utp15 (residue 380-513) (domain or fragment, UniProt Q04305 380-513, looked up)
chain: B2 chain 2
notes: Utp15, subunit of UtpA, residues 380-513; The tags were cleaved with Ulp1; also called Utp15 CTD

Assays:
Utp4 [1] = molecular target: T1, Utp4 (UniProt Q06679 1-776); assay: co-purification; purified Utp5–Utp15 CTD complex, Utp8–Utp9 CTD complex and His6-tagged Utp4 mixed; HisTrap and gel filtration; details: both partners purified
T1 construct: Utp4, subunit of UtpA; S. cerevisiae is surmised from PDB 5WLC and the printed residue numbers; also called His6-tagged Utp4; Upt4; source: E. coli BL21(DE3), purified (HisTrap, heparin)
T1 sequence: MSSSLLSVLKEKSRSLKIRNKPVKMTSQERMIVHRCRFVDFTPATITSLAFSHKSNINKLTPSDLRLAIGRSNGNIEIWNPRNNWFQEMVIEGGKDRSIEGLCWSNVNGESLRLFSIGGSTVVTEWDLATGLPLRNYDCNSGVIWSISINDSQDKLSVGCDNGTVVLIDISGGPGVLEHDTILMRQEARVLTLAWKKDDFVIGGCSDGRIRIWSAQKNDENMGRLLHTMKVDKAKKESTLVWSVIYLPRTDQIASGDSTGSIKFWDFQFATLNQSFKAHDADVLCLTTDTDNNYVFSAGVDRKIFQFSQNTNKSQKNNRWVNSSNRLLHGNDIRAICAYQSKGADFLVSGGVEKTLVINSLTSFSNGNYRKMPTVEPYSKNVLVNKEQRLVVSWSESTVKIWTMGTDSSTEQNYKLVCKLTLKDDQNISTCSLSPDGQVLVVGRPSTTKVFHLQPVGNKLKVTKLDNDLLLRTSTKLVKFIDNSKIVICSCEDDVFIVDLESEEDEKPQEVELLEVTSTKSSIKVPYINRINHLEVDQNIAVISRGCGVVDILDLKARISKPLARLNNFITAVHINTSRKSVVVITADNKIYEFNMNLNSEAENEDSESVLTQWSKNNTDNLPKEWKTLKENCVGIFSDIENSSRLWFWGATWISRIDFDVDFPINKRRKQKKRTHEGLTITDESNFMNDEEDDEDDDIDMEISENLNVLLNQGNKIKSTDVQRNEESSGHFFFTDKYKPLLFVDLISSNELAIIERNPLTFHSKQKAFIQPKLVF

Utp4 [2] = molecular target: T1, Utp4; assay: cross-linking; UtpA sub-complex (0.5 μg/μL) with 0.5 mM BS^3 at RT for 45 min, quenched with 20 mM NH4HCO3; LC-MS/MS; details: both partners purified

Row | Binder | binding result (Utp4 [1]) | binding result (Utp4 [2])
1 | B1 | binds | 
2 | B2 | binds | 
3 | B3 |  | binds
4 | B4 |  | binds
